Experiments:
Type in all cases: cell-based
CXCR3 [1] = target: T1, CXCR3 (Homo sapiens, UniProt P49682); assay: SelectScreen agonist/antagonist assay, CXCR3-bla U2OS cells; parameters: TEV protease site; Gal4-VP16 transcription factor ('Ga14-VP16' [sic]); Tango cell line; host or cells: Tango GPCR-bla U2OS; conditions: for SelectScreen Antagonist Mode: control agonist I-TAC at EC80
T1 sequence (P49682 1-368): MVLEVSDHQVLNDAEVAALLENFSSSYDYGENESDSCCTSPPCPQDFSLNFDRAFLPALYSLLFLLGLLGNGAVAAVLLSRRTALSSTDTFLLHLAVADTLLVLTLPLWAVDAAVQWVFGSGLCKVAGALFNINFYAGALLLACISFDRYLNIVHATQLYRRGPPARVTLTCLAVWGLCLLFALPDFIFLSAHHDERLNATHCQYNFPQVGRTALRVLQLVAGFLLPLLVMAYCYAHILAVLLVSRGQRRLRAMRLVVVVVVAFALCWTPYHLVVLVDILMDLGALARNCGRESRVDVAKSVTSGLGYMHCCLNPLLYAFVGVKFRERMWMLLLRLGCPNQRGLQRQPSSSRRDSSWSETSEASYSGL
Experimental: In agonist assays, chemokine receptor expressing U2OS cells are thawed and resuspended in Assay Media (DMEM, 1% dialyzed FBS, 25 mM HEPES pH 7.3, 0.1 mM NEAA, 100 U/mL/100 μg/mL Pen/Strep) to a concentration of 312,500 cells/mL. 4 μL of a 10× serial dilution of I-TAC (control agonist starting concentration, 500 nM) or compounds are added to appropriate wells of a 384-well TC-Treated assay plate. 32 μL of cell suspension (10,000 cells) is added to each well. 4 μL of Assay Media is added to all wells to bring the final assay volume to 40 μL. The plate is incubated for 16-24 hours at 37° C./5% CO2 in a humidified incubator. 8 μL of 1 μM Substrate+Solution D Loading Solution is added to each well and the plate is incubated for 2 hours at room temperature. The plate is read on a fluorescence plate reader.
In antagonist assays, CXCR3-bla U2OS cells were thawed and prepared as described above for the Agonist assay. 4 μL of 10× compounds or assay media was added to appropriate wells of a TC-Treated assay plate. 32 μL of cell suspension was added to the wells and pre-incubated at 37° C./5% CO2 in a humidified incubator with compounds and control antagonist titration for 30 minutes. 4 μL of 10× control agonist I-TAC at the pre-determined EC80 concentration is added to wells containing the control antagonist or compounds. The plate is incubated for 16-24 hours at 37° C./5% CO2 in a humidified incubator. 8 μL of 1 μM Substrate+Solution D Loading Solution is added to each well and the plate is incubated for 2 hours at room temperature. The plate is read on a fluorescence plate reader.
Tango™ CXCR3-bla U2OS cells contain the human chemokine (C-X-C motif) receptor 3 linked to a TEV protease site and a Ga14-VP16 transcription factor stably integrated into the Tango™ GPCR-bla U2OS cell line. This parental cell line stably expresses a beta-arrestin/TEV protease fusion protein and the beta-lactamase reporter gene under the control of a UAS response element. The Tango™ CXCR3-bla U2OS cells have been functionally validated for a response to I-TAC (CXCL11).

CXCR4 = target: T2, CXCR4 (Homo sapiens, UniProt P61073); assay: gpcrMAX PathHunter β-Arrestin Assay
T2 construct: host or cells: U2OS
T2 sequence (P61073 whole entry): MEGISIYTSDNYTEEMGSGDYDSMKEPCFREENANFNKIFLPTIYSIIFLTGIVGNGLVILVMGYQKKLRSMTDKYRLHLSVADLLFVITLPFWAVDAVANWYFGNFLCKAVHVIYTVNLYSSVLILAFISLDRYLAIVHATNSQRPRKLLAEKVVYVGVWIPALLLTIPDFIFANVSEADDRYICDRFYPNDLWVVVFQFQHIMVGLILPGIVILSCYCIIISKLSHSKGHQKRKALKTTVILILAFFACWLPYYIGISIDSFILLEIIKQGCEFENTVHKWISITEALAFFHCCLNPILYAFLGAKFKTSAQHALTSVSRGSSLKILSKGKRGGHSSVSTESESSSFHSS
Text: (§1) The PathHunter® β-Arrestin Assay monitored activation of a panel of 168 G-protein coupled receptors (GPCRs) with […] activation of the GPCR in agonist and antagonist mode.
(§2) where the test sample is the peptide, the vehicle control is DMSO (0% activity), and the control ligand is control compound (100% activity).
(§3) Peptides SG-3-00802 and SG-3-05021 were identified as an agonist, an antagonist, a PAM (Positive Allosteric Modulator), or an inverse-agonist. Agonist, antagonist, PAM, and inverse-agonist were identified according to the guidelines in Table 8. The basal activity/noise is a % activity of −20% to 20% for both agonist and antagonist modes. A PAM (Positive Allosteric Modulator) binds to a receptor, at a different site than the agonist, to change the receptor's response to the agonist. An inverse-Agonist is a binding partner with agonistic shutting down of basal activity in the cell. An antagonist antagonizes the activity of a particular binding partner.

CXCR3 [2] = target: T1, CXCR3; assay: gpcrMAX PathHunter β-Arrestin Assay
Text: as §1, §2, §3

CCR7 = target: T3, CCR7 (Homo sapiens, UniProt P32248); assay: gpcrMAX PathHunter β-Arrestin Assay
T3 construct: expressed in transfected cells
T3 sequence (P32248 25-378): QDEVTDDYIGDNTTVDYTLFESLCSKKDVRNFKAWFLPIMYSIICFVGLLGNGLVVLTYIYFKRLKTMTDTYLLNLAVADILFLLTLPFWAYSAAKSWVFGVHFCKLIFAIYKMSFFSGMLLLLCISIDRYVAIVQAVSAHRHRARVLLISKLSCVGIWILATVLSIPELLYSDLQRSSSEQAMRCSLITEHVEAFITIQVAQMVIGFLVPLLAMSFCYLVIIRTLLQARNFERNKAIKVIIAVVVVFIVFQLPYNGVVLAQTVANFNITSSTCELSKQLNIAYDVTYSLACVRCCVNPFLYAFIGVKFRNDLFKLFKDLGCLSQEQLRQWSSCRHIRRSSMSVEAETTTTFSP
Text: as §1, §2, §3

[3] = system: (LPS)-stimulated human monocyte-derived DCs; assay: CXCL10 induction in LPS-stimulated dendritic cells; conditions: for dose-dependent response of CXCL10 induction: dose response analysis, same assay setup; for CXCL10 induction: supernatants of low dose LPS-stimulated dendritic cells, vs other peptides and negative control peptide
Experimental: Studies were performed to identify target peptides that induced CXCL10 production. Target peptides identified from human microbiomes from patients that responded to anti-PD-1 therapy were each synthesized and tested for TNF-α, CXCL10, IL6, and INF-γ induction. Fifteen peptides with high CXCL10 induction were identified for additional testing, indicated with asterisks in the figure (FIG. 1). […] Peptide sequences and characteristics can be found in Tables 4-7.
Peptides that bound to specific immune cells (1% of the screened peptides) were then evaluated for activity in cell-based assays using isolated primary human T cells, DCs, and macrophages. Immune-driven inhibition of tumor growth relies on DC-mediated recruitment of effector T cells, mainly via CXCL9 and CXCL10. […] Peptides inducing robust CXCL10 secretion (LPS)-stimulated human monocyte-derived DCs from multiple donors, with a mean induction of >2-fold of CXCL10 over OVA323 339 control peptide in DCs were selected for dose response analysis (n=36). […] To confirm cross species activity, 10 of the 15 peptides with EC50<10 μM were screened in vitro for CXCL10 induction in mouse bone marrow DCs.

Sequence	SelectScreen Agonist Mode (CXCR3 [1])	SelectScreen Antagonist Mode (CXCR3 [1])	gpcrMAX Agonist Mode (% Agonist Activity) (CXCR4) [%]	gpcrMAX Antagonist Mode (% Antagonist Activity) (CXCR4) [%]	gpcrMAX Agonist Mode (% Agonist Activity) (CXCR3 [2]) [%]	gpcrMAX Antagonist Mode (% Antagonist Activity) (CXCR3 [2]) [%]	Interpretation (CCR7)	gpcrMAX Agonist Mode (% Agonist Activity) (CCR7) [%]	gpcrMAX Antagonist Mode (% Antagonist Activity) (CCR7) [%]	dose-dependent response of CXCL10 induction [3]	CXCL10 induction [3]
MKVRPSVKPMCEKCKIIRRKGRVMVICENPKHKQRQG [SG-3-00802]	weak agonistic activity and No	potent reverse antagonistic activity (sensitization) and PAM	−14	99	−4	−32	No	0	0	robust dose-dependent response	high CXCL10 inducers
LGKTDWIEKYFKVKKEKIDKMQRFLQG (peptide for immunotherapy; SG-3-05021)	no agonistic activity and No	reverse antagonistic activity (sensitization) and PAM	1	10	−4	−20		0	−18	robust dose-dependent response	high CXCL10 inducers

Reference: patent publication US20240317816A1, “PEPTIDES FOR IMMUNOTHERAPY” (Genevive, Inc., priority 2021, published 2024)
